{"source": "patent US20250320281A1", "assay_in_all_cases": "cell-based or functional assay", "key": {"[1]": {"molecular_target": "HIV-1 Env of isolate 97ZA012 (subtype C) (HIV-1)"}, "[2]": {"molecular_target": "HIV-1 Env of pseudovirus isolate MGRM-G-025 (HIV-1)"}, "[3]": {"molecular_target": "HIV-1 Env of isolate MGRM-AE-005 (subtype AE) (HIV-1)"}, "[4]": {"molecular_target": "HIV-1 Env of isolate MGRM-AG-006 (subtype AG) (HIV-1)"}, "[5]": {"molecular_target": "HIV-1 Env of isolate MGRM-A-001 (HIV-1)"}, "[6]": {"molecular_target": "HIV-1 Env of isolate MG RM-D-011 (HIV-1)"}, "[7]": {"molecular_target": "HIV-1 Env of isolate MGRM-Chronic-B-017 (subtype B) (HIV-1)"}, "[8]": {"molecular_target": "HIV-1 Env of isolate NL43 (subtype B) (HIV-1)"}, "[9]": {"molecular_target": "HIV-1 envelope glycoprotein (Env) of isolate MGRM-C-023 (HIV-1)"}, "[10]": {"molecular_target": "HIV-1 Env of isolate APV-13 (HIV-1)"}, "[11]": {"molecular_target": "HIV-1 Env of isolate MG RM-D-002 (HIV-1)"}, "[12]": {"molecular_target": "HIV-1 envelope glycoprotein (Env) of isolate MGRM-C-006 (HIV-1)"}, "[13]": {"molecular_target": "HIV-1 Env of isolate 92UG046 (HIV-1)"}, "[14]": {"molecular_target": "HIV-1 Env of isolate 92WR020 (HIV-1)"}, "[15]": {"molecular_target": "HIV-1 Env of isolate MGRM-A-003 (HIV-1)"}, "[16]": {"molecular_target": "HIV-1 APV-17 envelope glycoprotein (Env) on pseudovirus (HIV-1)"}, "[17]": {"molecular_target": "HIV-1 Env of pseudovirus MGRM-F1-010 (HIV-1)"}, "[18]": {"molecular_target": "HIV-1 Env of isolate 92RW024 (clade A pseudovirus) (HIV-1)"}, "[19]": {"molecular_target": "HIV-1 Env of isolate APV_17, clade B, on pseudovirus (HIV-1)"}, "[20]": {"molecular_target": "HIV-1 Env of pseudovirus CMU02 (clade CRF01_AE) (HIV-1)"}, "[21]": {"molecular_target": "HIV-1 Env of pseudovirus MGRM-F1-020 (HIV-1)"}, "[22]": {"molecular_target": "HIV-1 Env of isolate MGRM-D-013 (clade D pseudovirus) (HIV-1)"}, "[23]": {"molecular_target": "HIV-1 IAVI-C22 envelope glycoprotein (Env) on pseudovirus (HIV-1)"}, "[24]": {"molecular_target": "HIV-1 Env of isolate MGRM-G-001 (HIV-1)"}, "[25]": {"molecular_target": "HIV-1 Env of isolate 6535.3 (Acute), clade B, on pseudovirus (HIV-1)"}, "[26]": {"molecular_target": "HIV-1 Env of isolate MGRM-D-012 (clade D pseudovirus) (HIV-1)"}, "[27]": {"molecular_target": "HIV-1 Env of isolate 92UG001 (clade D pseudovirus) (HIV-1)"}, "[28]": {"molecular_target": "HIV-1 Env of pseudovirus MGRM-F1-022 (HIV-1)"}, "[29]": {"molecular_target": "HIV-1 Env of isolate MGRM-G-004 (HIV-1)"}, "[30]": {"molecular_target": "HIV-1 Env of isolate MGRM-C-026 (HIV-1)"}, "[31]": {"molecular_target": "HIV-1 Env of isolate MGRM-F1-015 (HIV-1)"}, "[32]": {"molecular_target": "HIV-1 Env of isolate MGRM-Chronic-B-004 (subtype B pseudovirus) (HIV-1)"}, "[33]": {"molecular_target": "HIV-1 Env of isolate MGRM-F1-008 (pseudovirus) (HIV-1)"}, "[34]": {"molecular_target": "HIV-1 Env of isolate MGRM-D-022 (pseudovirus) (HIV-1)"}, "[35]": {"molecular_target": "HIV-1 Env of isolate MGRM-Chronic-B-024 (subtype B pseudovirus) (HIV-1)"}, "[36]": {"molecular_target": "HIV-1 APV13 Env (pseudovirus, clade B) (HIV-1)"}, "[37]": {"molecular_target": "HIV-1 Env of isolate APV_13 (subtype B pseudovirus) (HIV-1)"}, "[38]": {"molecular_target": "HIV-1 Env of isolate MGRM-Chronic-B-020 (subtype B pseudovirus) (HIV-1)"}, "[39]": {"molecular_target": "HIV-1 Env of isolate JR-CSF (subtype B pseudovirus) (HIV-1) (UniProt P20871)"}, "[40]": {"molecular_target": "HIV-1 Env of isolate 92UG046 (pseudovirus) (HIV-1)"}}}
{"substance": "5345_I01 (PGT-137) (antibody)", "values": [{"measurement": "IC50 neutralization", "setting": "[1]", "result": "> 50", "unit": "µg/mL"}, {"measurement": "IC50 (µg/mL), pseudovirus neutralization", "setting": "[2]", "result": "> 50", "unit": "µg/mL"}, {"measurement": "IC50 (µg/mL), pseudovirus neutralization", "setting": "[3]", "result": "> 50", "unit": "µg/mL"}, {"measurement": "IC50 (µg/mL), pseudovirus neutralization", "setting": "[4]", "result": 28.3, "unit": "µg/mL"}, {"measurement": "IC50", "setting": "[5]", "result": "> 50", "unit": "µg/mL"}, {"measurement": "IC50 (µg/mL), pseudovirus neutralization", "setting": "[6]", "result": 6.3, "unit": "µg/mL"}, {"measurement": "IC50 neutralization", "setting": "[7]", "result": "> 50", "unit": "µg/mL"}, {"measurement": "IC50 neutralization", "setting": "[8]", "result": 17.4, "unit": "µg/mL"}, {"measurement": "IC50 (µg/mL), pseudovirus neutralization", "setting": "[9]", "result": 0.23, "unit": "µg/mL"}, {"measurement": "neutralization IC50", "setting": "[10]", "result": "> 50", "unit": "µg/mL"}, {"measurement": "IC50 (µg/mL), pseudovirus neutralization", "setting": "[11]", "result": "> 50", "unit": "µg/mL"}, {"measurement": "IC50 (µg/mL), pseudovirus neutralization", "setting": "[12]", "result": "> 50", "unit": "µg/mL"}, {"measurement": "IC50 (µg/mL), pseudovirus neutralization", "setting": "[13]", "result": "> 50", "unit": "µg/mL"}, {"measurement": "IC50", "setting": "[14]", "result": 0.005, "unit": "µg/mL"}, {"measurement": "IC50", "setting": "[15]", "result": "> 50", "unit": "µg/mL"}]}
{"substance": "1496_C09 (PG9) (TCN-109) (antibody)", "values": [{"measurement": "IC50, pseudovirus neutralization", "setting": "[16]", "result": 26.4, "unit": "µg/mL"}, {"measurement": "IC50 (µg/ml), pseudovirus neutralization", "setting": "[17]", "result": 0.03, "unit": "µg/mL"}, {"measurement": "IC50 (µg/ml), pseudovirus neutralization", "setting": "[18]", "result": 0.18, "unit": "µg/mL"}, {"measurement": "IC50 (µg/ml), pseudovirus neutralization", "setting": "[19]", "result": 14.6, "unit": "µg/mL"}, {"measurement": "IC50", "setting": "[20]", "result": 7.69, "unit": "µg/mL"}, {"measurement": "IC50 (µg/ml), pseudovirus neutralization", "setting": "[21]", "result": 4.55, "unit": "µg/mL"}, {"measurement": "IC50 (µg/ml), pseudovirus neutralization", "setting": "[22]", "result": 0.06, "unit": "µg/mL"}, {"measurement": "IC50, pseudovirus neutralization", "setting": "[23]", "result": 24.9, "unit": "µg/mL"}, {"measurement": "IC50 (µg/mL), pseudovirus neutralization", "setting": "[24]", "result": 0.166, "unit": "µg/mL"}, {"measurement": "IC50 (µg/ml), pseudovirus neutralization", "setting": "[25]", "result": 0.22, "unit": "µg/mL"}, {"measurement": "IC50 (µg/ml), pseudovirus neutralization", "setting": "[26]", "result": 9.31, "unit": "µg/mL"}, {"measurement": "IC50 (µg/ml), pseudovirus neutralization", "setting": "[27]", "result": 41.8, "unit": "µg/mL"}, {"measurement": "IC50 (µg/ml), pseudovirus neutralization", "setting": "[28]", "result": 0.06, "unit": "µg/mL"}]}
{"substance": "VRC01 (antibody)", "values": [{"measurement": "IC50 (µg/mL), pseudovirus neutralization", "setting": "[29]", "result": "> 50", "unit": "µg/mL"}, {"measurement": "IC50 (µg/mL), pseudovirus neutralization", "setting": "[3]", "result": 0.029, "unit": "µg/mL"}, {"measurement": "IC50", "setting": "[6]", "result": 0.075, "unit": "µg/mL"}, {"measurement": "IC50 (µg/mL), pseudovirus neutralization", "setting": "[30]", "result": 0.707, "unit": "µg/mL"}, {"measurement": "IC50", "setting": "[31]", "result": 0.387, "unit": "µg/mL"}, {"measurement": "IC50 (µg/mL), pseudovirus neutralization", "setting": "[24]", "result": 0.0371, "unit": "µg/mL"}]}
{"substance": "4877_D15 (PGT-122) (antibody)", "values": [{"measurement": "IC50 (µg/mL), pseudovirus neutralization", "setting": "[32]", "result": 0.008, "unit": "µg/mL"}, {"measurement": "IC50 (µg/mL), pseudovirus neutralization", "setting": "[2]", "result": 0.079, "unit": "µg/mL"}, {"measurement": "IC50, pseudovirus neutralization", "setting": "[33]", "result": "> 50", "unit": "µg/mL"}, {"measurement": "IC50, pseudovirus neutralization", "setting": "[34]", "result": "> 50", "unit": "µg/mL"}, {"measurement": "IC50 (µg/mL), pseudovirus neutralization", "setting": "[35]", "result": 2.31, "unit": "µg/mL"}, {"measurement": "IC50 neutralization", "setting": "[36]", "result": 0.992, "unit": "µg/mL"}, {"measurement": "IC50 (µg/mL), pseudovirus neutralization", "setting": "[37]", "result": 0.778, "unit": "µg/mL"}, {"measurement": "neutralization IC50", "setting": "[30]", "result": 0.006, "unit": "µg/mL"}, {"measurement": "IC50 (µg/mL), pseudovirus neutralization", "setting": "[31]", "result": 31.4, "unit": "µg/mL"}, {"measurement": "IC50 (µg/mL), pseudovirus neutralization", "setting": "[38]", "result": 0.005, "unit": "µg/mL"}, {"measurement": "IC50 (µg/mL), pseudovirus neutralization", "setting": "[39]", "result": 0.057, "unit": "µg/mL"}, {"measurement": "IC50, pseudovirus neutralization", "setting": "[40]", "result": "> 50", "unit": "µg/mL"}]}
{"substance": "4995_E20 (PGT-142) (antibody)", "values": [{"measurement": "IC50 (µg/mL), pseudovirus neutralization", "setting": "[29]", "result": "> 50", "unit": "µg/mL"}, {"measurement": "IC50 (µg/mL), pseudovirus neutralization", "setting": "[3]", "result": "> 50", "unit": "µg/mL"}, {"measurement": "IC50 (µg/mL), pseudovirus neutralization", "setting": "[24]", "result": 0.362, "unit": "µg/mL"}]}
{"substance": "4980_N08 (PGT-143) (antibody)", "values": [{"measurement": "IC50 (µg/mL), pseudovirus neutralization", "setting": "[29]", "result": "> 50", "unit": "µg/mL"}, {"measurement": "IC50 (µg/mL), pseudovirus neutralization", "setting": "[3]", "result": "> 50", "unit": "µg/mL"}, {"measurement": "IC50 (µg/mL), pseudovirus neutralization", "setting": "[24]", "result": 0.423, "unit": "µg/mL"}]}
{"substance": "PGV04 (antibody)", "values": [{"measurement": "IC50 (µg/mL), pseudovirus neutralization", "setting": "[29]", "result": "> 50", "unit": "µg/mL"}, {"measurement": "IC50 (µg/mL), pseudovirus neutralization", "setting": "[24]", "result": "> 50", "unit": "µg/mL"}]}
{"substance": "4993_K13 (PGT-141) (antibody)", "values": [{"measurement": "IC50 (µg/mL), pseudovirus neutralization", "setting": "[29]", "result": "> 50", "unit": "µg/mL"}, {"measurement": "IC50 (µg/mL), pseudovirus neutralization", "setting": "[3]", "result": "> 50", "unit": "µg/mL"}, {"measurement": "IC50 (µg/mL), pseudovirus neutralization", "setting": "[24]", "result": 0.392, "unit": "µg/mL"}]}
